Measured values taken from article PMC2782731.

B1: CG30491 (Drosophila melanogaster) (protein)
chain: MSLFAFLKSRTAFWLSFTGTTTGLAFFVKDLMQGGQFTKETNETGKVFIVTGANTGIGKETVREIAKRGGTVYMACRNLKKCEEAREEIVLETKNKYVYCRQCDLASQESIRHFVAAFKREQEHLHVLINNAGVMRCPRSLTSDGIELQLGVNHMGHFLLTNLLLDLLKKSSPSRIVNVSSLAHTRGEINTGDLNSDKSYDEGKAYSQSKLANVLFTRELAKRLEGTNVTANALHPGVVDTEIIRHMGFFNNFFAGLFVKPLFWPFVKTPRNGAQTSLYVALDPELEKVTGQYFSDCKLKEMAPAATDTQTAKWLWAVSEKWTKPTMIKIQ
B2: CG3842 (Drosophila melanogaster) (protein)
chain: MSEAATPPGSVPGTVFPPGFDPTAESVEKTLCFRGFWAWAVLIFLIVLGILLFMWLLRKCIQGPAYRKANRIDGKVVIVTGCNTGIGKETVLELAKRGARVYMACRDPGRCEAARLDIMDRSRNQQLFNRTLDLGSLQSVRNFVERFKAEESRLDILINNAGVMACPRTLTADGFEQQFGVNHLGHFLLTNLLLDRLKHSSPSRIVVVSSAAHLFGRINREDLMSEKNYSKFFGAYSQSKLANILFTLKLSTILKDTGVTVNCCHPGVVRTEINRHFSGPGWMKTALQKGSLYFFKTPKAGAQTQLRLALDPQLEGSTGGYYSDCMRWPLFPWVRNMQTADWLWRESEKLLGLPPLEPPPPVQSPTQNGNGTQNGNGSSSASASASSNNPASREMQSVETVVVNRS
B3: CG2064 (Drosophila melanogaster) (protein)
chain: MCIFIDCLLSPLIMWPATIGVGIYFLKEYMQGGKFTKDTDETGKVFIVTGANTGIGKETALEIARRGGTVYLACRDMNRCEKARKDIIKETNNQNIFSRELDLSSLDSIRKFVDGFKKEQPKLHVLINNAGVMRCPKTLTKDGYELQLGVNHIGHFLLTNLLLDVLKNSAPSRIVVVSSLAHARGSINVADLNSEKSYDEGLAYSQSKLANVLFTRELAKRLEGSGVTVNALHPGVVDTELARNWAFFQTNLVKFFLKPMIWPLLKTPKSGAQTSIYAALDPELKNISGLYFSDCKPKPVASGALDDKVAKFLWAESEKWTGLDKLEANN
B4: CG2070 (Drosophila melanogaster) (protein)
chain: MSAPTDYLFCPLAYGSALSAIGIYLLRQYMQGGQFTTKTNETGRVAIVTGCNQGIGKETVLELARRGATVYMACRDMKKCENARREIIKATNNQNIFARQLDLCSMKSIRNFAAGFKREQNKLHILINNAGIMDCPKMLTEDGFEMQIGVNHMGHFLLTLLLLDVLKSSAPSRVVVLSSIAHRFGRIKRDDLNSEKSYDRKMAYCQSKLANVLFTRELAKRLSGTGVTVNALHPGVVNTELFRNTPFLGSWFGKLLIAPIIWIFIKTARNGAQTTLYAALDPSLEKVSGRYFSDCKQKHVGSAAQYDDDAQFLWAESEKWTGINI
B5: CG2065 (Drosophila melanogaster) (protein)
chain: MQGGQFTKQTDETGKVFIVTGANTGIGKETVLEIAKRGGTVYMACRDMNRCEKARQDIIRETNNQNIFSRELDLSSLESIRKFAAGFKKEQDKLHVLINNAGVMHCPRTLTKDGFEMQLGVNHMGHFLLTHLLLDVLKKTAPSRIVNVSSLVHTQGFIKTADLNSEKSYSRIGAYSQSKLANVLFTRELAKRLEGTGVTTNSLHPGAVDTELSRNWKFLKHPFAQLLLKPLLWVLFKTPRNGAQTTLYAALDPALKDVSGLYFSDCQPKEVSAAAQDDKTGKFLWAESEKWTGVNSTKVD

Key:
[1] = substrate: CC1=C(/C=C/C(C)=C/C=C/C(C)=C/C=O)C(C)(C)CC(O)C1; assay: HPLC of 3-hydroxyretinol formed, microsomes of Sf9 cells; type: biochemical, Drosophila melanogaster; conditions: apparent; 1 mM NADPH; BSA-solubilized substrate; ambient temperature; reduction
[2] = substrate: CC1=C(/C=C/C(C)=C/C=C/C(C)=C/C=O)C(C)(C)CCC1; assay: HPLC of retinol formed, microsomes of Sf9 cells; type: biochemical, Drosophila melanogaster; conditions: apparent; 1 mM NADPH; BSA-solubilized substrate; ambient temperature; reduction

Protein	Km [1] [µM]	Vmax [1] [µmol/min/mg]	Km [2] [µM]	Vmax [2] [µmol/min/mg]
B1	3.2 ± 0.3	0.029	0.6 ± 0.1	–
B2	4.1 ± 0.1	0.025	0.27 ± 0.05	0.007
B3	2.7 ± 0.9	0.00045	4.2 ± 1.2	0.0016
B4	–	–	0.4 ± 0.1	0.021
B5	4.4 ± 0.6	0.001	0.7 ± 0.1	0.0016
